Measured values reported in the supplement of paper PMC9732359.
± gives the uncertainty stated by the source.

Assay: protein stability index of a GFP-peptide fusion (yeast GPS) (PSI 1-4); higher = more stable; sorted into four equal gates, so the index is relative within each strain
Summary of the method: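 Tiled 17-residue yeast protein peptides were fused downstream of GFP in a plasmid that also expresses Cherry, and the pooled library was carried in yeast. Mid-log cultures in leucine-free medium were sorted into four equal gates by GFP/Cherry fluorescence ratio, and plasmids from each gate were PCR-amplified and Illumina-sequenced, with reads assigned to strains by barcodes. The protein stability index for each peptide was each gate's read frequency times its gate number, summed.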

Row | Sequence | protein stability index (doa10∆) | protein stability index (pdr5∆) | protein stability index (san1∆) | protein stability index (ubr1∆)
1 | QETEGTNRHTLALETVL [SIR3] | 2.72 ± 0.063 | 2.57 ± 0.054 | 2.53 ± 0.06 | 2.83 ± 0.041
2 | QFELLSRRWRQRKNIQS [BRR2] | 1.44 ± 0.08 | 1.92 ± 0.056 | 1.55 ± 0.088 | 1.65 ± 0.044
3 | QFEVSDDEKNDKQARKQ [SNF2] | 3.38 ± 0.083 | 3.4 ± 0.12 | 3.06 ± 0.069 | 3.29 ± 0.077
4 | QFEWHQNSLLTNTHPNF [SNF2] | 2.87 ± 0.063 | 2.88 ± 0.08 | 3.09 ± 0.066 | 2.99 ± 0.047
5 | QFINLAGYKKLGLKFDD [QCR7] | 2.43 ± 0.2 | 3.61 ± 0.14 | – | –
6 | QFNAQGVRDINCVNDVL [POP1] | 2.92 ± 0.17 | 2.92 ± 0.17 | 2.91 ± 0.11 | –
7 | QFTLYDRELNEVINQME [SMC3] | 3.01 ± 0.095 | 3.09 ± 0.091 | 2.94 ± 0.13 | 3.08 ± 0.046
8 | QFTSSLFKALKVILNER [RGR1] | 2.03 ± 0.11 | 2.4 ± 0.069 | 1.83 ± 0.1 | 2.42 ± 0.077
9 | QGGNNELGTAVGKLFRV [RPL30] | 2.5 ± 0.12 | 2.83 ± 0.093 | 2.45 ± 0.06 | 2.84 ± 0.076
10 | QGGVLPNIHQNLLPKKS [HTA1] | 2.67 ± 0.082 | 2.75 ± 0.074 | 2.9 ± 0.076 | 2.71 ± 0.057
11 | QGPVKNTQLHGPSATDP [RGR1] | 2.93 ± 0.062 | 3.06 ± 0.047 | 2.97 ± 0.053 | 3.02 ± 0.035
12 | QGSVTVGLRSNTHAVLV [PRE5] | 1.24 ± 0.033 | 1.43 ± 0.039 | 1.75 ± 0.07 | 1.29 ± 0.037
13 | QHEQGTFEKHDRVEDIC [RRI2] | 2.89 ± 0.091 | – | – | 2.97 ± 0.13
14 | QIEGPFLIIVPKSTLDN [ISW2] | 2.88 ± 0.13 | 2.12 ± 0.1 | 2.17 ± 0.088 | 1.75 ± 0.097
15 | QIELSCNERVPLSVATE [SRP72] | 2.11 ± 0.04 | 2.21 ± 0.053 | 2.1 ± 0.087 | 2.12 ± 0.04
16 | QILQGICKNCSAILLSE [RPO31] | 2.17 ± 0.071 | 2.23 ± 0.061 | 2.26 ± 0.13 | 2.43 ± 0.069
17 | QINIMPSLKAHFTEIKL [SIR3] | 2.18 ± 0.056 | 2.1 ± 0.054 | 2.29 ± 0.057 | 2.4 ± 0.045
18 | QISIIDIWSISKKRQAE [YML031W/NDC1] | 2.32 ± 0.056 | 2.63 ± 0.052 | 2.54 ± 0.053 | 2.79 ± 0.039
19 | QIYGFEGLNQRNQVQTE [YGR119C/NUP57] | 3.16 ± 0.17 | 2.94 ± 0.22 | 3.08 ± 0.13 | 3.39 ± 0.18
20 | QKDQDGRIPLHWSVSFQ [NAS6] | 3.29 ± 0.093 | 3.33 ± 0.079 | 3 ± 0.13 | 3.06 ± 0.053
21 | QKETQKVTKIWSKESNY [PRP28] | 1.63 ± 0.04 | 2.1 ± 0.041 | 2.3 ± 0.047 | 1.95 ± 0.027
22 | QKMAKAKKQNRPLPQWI [RPL39] | 2.97 ± 0.13 | 3.07 ± 0.057 | 3 ± 0.081 | 3.14 ± 0.059
23 | QKQLPQKTRVKLLFDHD [ESC2] | 2.86 ± 0.057 | 2.93 ± 0.05 | 3.03 ± 0.039 | 3 ± 0.039
24 | QKSPKIRDPLTQTGLLQ [RPC82] | 1.81 ± 0.069 | 1.74 ± 0.041 | 2.02 ± 0.12 | 1.91 ± 0.046
25 | QKVNAVDSTFQKVSENF [SMC3] | 3.29 ± 0.091 | 3.28 ± 0.079 | 3.44 ± 0.06 | 3.21 ± 0.04
26 | QKVQGESHIDSRNNTLN [SIR4] | 3.02 ± 0.057 | 3.1 ± 0.05 | 3.08 ± 0.057 | 3.01 ± 0.043
27 | QKYNQIQKQIETIQADL [SMC2] | 2.68 ± 0.047 | 2.57 ± 0.042 | 2.6 ± 0.047 | 2.45 ± 0.031

Row | Sequence | protein stability index (doa10∆) | protein stability index (pdr5∆) | protein stability index (san1∆) | protein stability index (ubr1∆)
28 | QLAVANEIIRSLSDEVM [SIR4] | 3.16 ± 0.077 | 3 ± 0.081 | 2.59 ± 0.12 | 3.21 ± 0.087
29 | QLDFTEFDEQYGTRPLV [SNF2] | 3.26 ± 0.048 | 3.02 ± 0.047 | 3.21 ± 0.039 | 2.81 ± 0.032
30 | QLKDMQTIEMITQIVEK [SRB8] | 2.87 ± 0.069 | 3.19 ± 0.075 | 2.94 ± 0.059 | 2.85 ± 0.056
31 | QLLIIEKEWENAIRIGE [SRP72] | 1.44 ± 0.052 | 1.69 ± 0.054 | 2.09 ± 0.12 | 2.21 ± 0.044
32 | QLLQRLNDMNTEISGLK [SMC3] | 3.28 ± 0.081 | 3.38 ± 0.1 | 3.22 ± 0.06 | 3.3 ± 0.058
33 | QLSQDEHSQVEQTCVKL [SRP72] | 3.17 ± 0.16 | 3.24 ± 0.064 | 3.1 ± 0.094 | 3.25 ± 0.084
34 | QLVTREAQIKDWVENEL [FAS2] | 3.44 ± 0.1 | 3.19 ± 0.1 | 3.39 ± 0.065 | 3.11 ± 0.064
35 | QLYHLEQQKEELTDKLS [SMC1] | 2.23 ± 0.16 | 3.11 ± 0.081 | 2.78 ± 0.15 | 3.14 ± 0.11
36 | QMMSKGIGALFTQQELQ [RPC34] | 3.3 ± 0.11 | 3.26 ± 0.12 | 3.12 ± 0.07 | 3.34 ± 0.08
37 | QMSDKHATVVPPEEFSN [SRB7] | 2.98 ± 0.05 | 2.88 ± 0.056 | 2.71 ± 0.059 | 2.86 ± 0.047
38 | QMSLEANVVDITNDWEQ [YJR042W/NUP85] | 2.65 ± 0.077 | 2.77 ± 0.064 | 2.92 ± 0.058 | 2.87 ± 0.058
39 | QMTWRQWLNNALKRSYG [POP8] | 2.9 ± 0.085 | 3.08 ± 0.14 | 3.56 ± 0.079 | 3.2 ± 0.079
40 | QNDELKFQGVLESEAQK [RPC34] | 3.41 ± 0.11 | 3.21 ± 0.11 | 3.23 ± 0.061 | 2.93 ± 0.075
41 | QNIKAPSVKRQKMAELE [PRP8] | 3.29 ± 0.088 | 3.25 ± 0.07 | 3.3 ± 0.074 | 3.29 ± 0.077
42 | QNNKPSFVFGQAAAKPS [YLR335W/NUP2] | 1.77 ± 0.05 | 2.12 ± 0.066 | 2.2 ± 0.1 | 2.45 ± 0.075
43 | QNNNTLGGGGLFGQSQQ [YGR119C/NUP57] | 3.43 ± 0.13 | 3.27 ± 0.29 | 3.18 ± 0.12 | 3.07 ± 0.087
44 | QNPMRDLKIEKLVLNIS [RPL11A] | 3.04 ± 0.076 | 3.09 ± 0.08 | 3.33 ± 0.082 | 2.84 ± 0.11
45 | QNSKEKNGLGLNFSTTA [MED2] | 2.9 ± 0.11 | 3.13 ± 0.064 | 2.94 ± 0.056 | 2.99 ± 0.089
46 | QNYRLDGRSFDQFRDVE [RRP45] | 3.42 ± 0.15 | 3.26 ± 0.16 | 3.34 ± 0.13 | 3.32 ± 0.092
47 | QPASYHSVQETNKISPK [SSN2] | 3.34 ± 0.098 | 3.1 ± 0.12 | 3.08 ± 0.068 | 1.91 ± 0.069
48 | QPIEKNGDKMPLKFKLG [YJR042W/NUP85] | 2.74 ± 0.064 | 2.98 ± 0.069 | 2.52 ± 0.086 | 3.08 ± 0.042
49 | QPKGVILYGPPGTGKTL [RPT6] | 3.47 ± 0.15 | 2.91 ± 0.21 | 3.3 ± 0.15 | 2.95 ± 0.21
50 | QPPTNVQPTIGQLPQLP [SNF5] | 3.14 ± 0.055 | 3.12 ± 0.063 | 3.09 ± 0.054 | 3.15 ± 0.043
51 | QPQPQPQQQQQHLQFNG [YDL088C/ASM4] | 2.6 ± 0.036 | 2.78 ± 0.038 | 2.5 ± 0.051 | 2.919 ± 0.024
52 | QPTIRKDGLKLVGSWKK [RPO21] | 3.52 ± 0.19 | – | 3.3 ± 0.14 | –
53 | QQIQEQVLKCKESWDPN [YGR119C/NUP57] | 3.3 ± 0.17 | – | 3.33 ± 0.25 | 3.52 ± 0.22
54 | QQKLNTRMQRGHRADVG [REC8] | 2.84 ± 0.16 | 2.85 ± 0.096 | 2.84 ± 0.15 | 3.3 ± 0.088
